Measured values from PMC9984425, “An autoimmune pleiotropic SNP modulates IRF5 alternative promoter usage through ZBTB3-mediated chromatin looping”.

B1: IRF5-promoter (dsDNA)
DNA 1: CCGGGAGCCCCGCTGGAGGCTGGCTTGGA
DNA 2: TCCAAGCCAGCCTCCAGCGGGGCTCCCGG
B2: rs4728142-A (dsDNA)
DNA 1: CCAAAAAGCTCTGAGCCAGTGTTAGTAAGAAATGG
DNA 2: CCATTTCTTACTAACACTGGCTCAGAGCTTTTTGG

Target: ZBTB3 recombinant protein (UniProt Q9H5J0 1-574)
Experiment: EMSA; 10 ng recombinant protein; EMSA: 20 nM biotin probe, 100 mM Tris pH 7.5, 55 mM KCl, 2.5 mM MgCl2, 1 mM DTT, 500 ng poly(dI-dC), 5% glycerol, 0.05% NP-40, 20 ul, room temperature 20 min; 500x unlabeled competitor; 6% native PAGE, 0.5x TBE
Details: protein: commercial; chain copies: 2; label: 5' biotin on strand 1; blunt

ZBTB3 recombinant protein, sequence (Q9H5J0 whole entry): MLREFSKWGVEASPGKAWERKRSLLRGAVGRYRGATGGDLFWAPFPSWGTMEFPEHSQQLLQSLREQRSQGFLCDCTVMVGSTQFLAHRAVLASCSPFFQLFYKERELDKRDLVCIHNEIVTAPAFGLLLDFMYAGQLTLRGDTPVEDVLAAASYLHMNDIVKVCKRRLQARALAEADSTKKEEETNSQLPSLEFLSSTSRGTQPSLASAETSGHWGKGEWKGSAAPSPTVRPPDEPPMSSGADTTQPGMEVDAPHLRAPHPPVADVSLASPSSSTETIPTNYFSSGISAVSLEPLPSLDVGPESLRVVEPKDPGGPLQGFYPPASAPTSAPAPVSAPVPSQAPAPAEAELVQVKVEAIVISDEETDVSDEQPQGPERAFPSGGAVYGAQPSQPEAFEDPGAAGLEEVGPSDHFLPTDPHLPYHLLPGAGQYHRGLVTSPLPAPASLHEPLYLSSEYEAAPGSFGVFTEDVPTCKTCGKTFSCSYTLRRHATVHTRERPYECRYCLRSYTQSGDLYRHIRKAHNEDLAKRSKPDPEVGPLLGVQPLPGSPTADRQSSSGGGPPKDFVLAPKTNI

Binder	binding result
B1	binds
B2	binds
